# Measurements reported in the domain aggregation screens of Martell et al. (2025).
# Assay: soluble fraction after stress (log2 fold change); higher = more stays soluble; pooled small domains, quantitative proteomics
# Conditions: stress: pH 4
# Procedure, shortened: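 Pooled custom libraries of small protein domains were subjected to pH 4 and measured by high-throughput quantitative proteomics. The log2 fold change in soluble amount per domain is reported, higher values meaning more remained soluble. This is used as a measure of aggregation propensity.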
row,Sequence,soluble fraction (log2)
1,HMNYDPEEKITQIRTMLEIHSRIEFNEIITPATRRGEIIIIFLALLHMIKRGYIVVRQHRLFGDITIFARD,0.22
2,HMNYKDQISRYFQQAFHIYPKYQTMKNEEGNFTSKIFKDDKMIIEGVGKSKKKAEQDVSRKALIHFNVL,0.398
3,HMNYKNAIGQVGSVYVPIPPNREGLGQIEVKVQSRVSTVRAVSDHSERLENRVAVRVIELVDDRTLLVEKL,-1.13
4,HMNYTSEDIKLASELFFHLLNNRILPANDVLASQYYDNNEIREILENMAEEGGLRIFGTRENLHLVSNGE,-1.21
5,HMNYYDLLGIPKSATKQQIRKAYRTKAKEFHPDVNGPFNSHMHFLLLKQAYETLMDANMRHVYDMALIS,0.215
6,HMPADHYEVLGIARDADAAEVKRAYRRLARESHPDANHGDSGAEVRFKAVSAAYEVLSDPERRARYDRFGH,-0.257
7,HMPANVELLRTFTNKTGTKIKARIVAVSDNKVKLIRDDSKKFIVPIDSLSEEDQKYLKDWIANEVGEQ,0.133
8,HMPARTANEEAIRKYLLNHDSITRKETQALLKTGQSAAGRILKEMVENGWLARIGNGRSTGYELR,0.244
9,HMPATIEGIRLYLSSGLIKGVGEEMASRIVKAFGTDTIRVLDEEPERLLKVRGVGKKSLDRIRTSWAEH,-0.585
10,HMPATPDATVQAVQQRLNELGYDVGSADGLMGRGTRSAIIAFQQDRGLAATGVADQALLLQLQP,-0.0545
11,HMPAWKINQELQATVIATKANQTRLRIEGQTFETQTAIALKPGQSLLIKVVSLEPQISFALI,0.199
12,HMPDFLAELAARMERDAVTEAQIRQVVAQKGHYPEEVSPAQYHPDFFRQWLFPHWEKIVDVIRSSPEYTP,-0.539
13,HMPDGTATATASVNVRSGASTLSPVLGVLRVGESIGVTGQANGGWVPVNYNGRAGYVYAAYLSFD,-0.0669
14,HMPDKIDSAAQGILDKLIRNDGFMAVTDKSPPEAIYKLFGVSKKVFKQAIGSLYKNRLITIEDAGLRIIPQ,-0.214
15,HMPDLKIGKDHRLAEYIETKIAEDGYSPGAVLGEIKAKGLEFETEISKPTLYSYIDKGIFLTITNKELPV,0.0942
16,HMPDLQKAIDDLLQVVDKRLNTSFESILNEVNSEKEAVAFFLALLEAVRWGFVKASQSDEGIKIEK,-0.387
17,HMPDLSAEERNIVEALQKSNDLQVNLIAVKTGMDMGTLSATLFGLEMKGLVKLMAGGTYHLI,0.191
18,HMPDLSEDEEKIVSLLRDNNDLNVNIIVMRTQLPSATVTSSLFSLELKGVVRMYAGGMYHLM,0.0385
19,HMPDLSYVDEVLNRYKGHKGTLITVLQQVQAHKGYLEKEALERVARSMGVPTARIYGVVTFYAQFR,0.099
20,HMPDPVHAAYLRLAVLLTEQAIGPQVTEQQIRDRFALTRRQTSDLMGRLIREGIAEKRAGYGWNINTELTA,-0.748
21,HMPDVAIMNVSVEPEKKVVRLQVKAISLEALLDFSTRLEAIPARVELQNHTPSKELSQKWAVNATLIVIY,-0.0366
22,HMPDYYAILEVERTADAKTIKAAYRKLALAYHPDRNPGDQAAEERFKQINEAYAVLSDPEKRARYDRYGSV,0.139
23,HMPEFKDMLKFFRMREHLSQSELAEKLGISASTVSMYEVGRRQPDFETEEKIADFFNTDLNTLRG,-0.169
24,HMPEGTYLEKLAIENNNLQLIGLSREASQLVQLLQDAPQWRKVNLTGVLQADGAASGRDRFTMTAELQ,0.187
25,HMPEKNQITHLIRLIDDRDEFVRKRVREQLIKLGEDAIPFLEMAAKTENLEIQRIASEIIQAIIPRQ,-0.282
26,HMPELPPHELLRALMVEHDIKQSELPEVGPQPVVSDVLAGKRALNLRQVAALAARFHVPMEVFT,-0.015
27,HMPELSITDADIIVAGGRGMGSAENFGLIRELAGLLGAAVGASRVVVDAEWVDQKHLIGQTGK,-0.507
28,HMPELTASDEADLKALVGGDQGFEQMANWARSNLGEEEINRFDAVVDSNNKDAIHMAIQAMQARMNA,-0.394
29,HMPELTERELEVLLLTARGLPSSEAARLLFITRRTVAAHLTSIYGKLGARNKTEAVLAALKRGIIMLDQIG,-1.46
30,HMPESYFEMLQKLLETYALPQEGTIYFSAADLARMPQKFEDVIEQTAQKKGGHLVVSKEPKDMDGGFVLV,-1.62
